System: HIV-1 LTR
Assay: HIV-1 reporter transcription, transient co-transfection
Format: cell-based, human
Experimental: Cell culture, transfection, and reporter gene assays. The E1A-transformed, human kidney cell line, 293, and NIH-3T3 cells were maintained in Dulbecco's Modified Eagle Medium (DMEM) supplemented with 10% fetal calf serum and penicillin-streptomycin at 37° C. in 5% carbon dioxide in tissue culture grade Petri dishes. PRMT-2−/− mouse embryo fibroblasts (MEFs) and wild type MEFs were prepared from day 13.5 embryos and maintained in DMEM supplemented with 10% fetal calf serum. MEFs at passage 4 were used in this experiment. Lipofectamine Plus™ reagent (Boehringer Mannheim) was used to transfect both 293 and NIH-3T3 cells according to directions from the manufacturer. […] TNF-α stimulation of cells was done using recombinant TNF-α (200 U/ml) for 12 hours. Transfected cells were harvested at 36 hours, and CAT activity was assayed on 10 to 100 μg of protein from whole cell extracts. CAT assays were performed essentially as described in Leung, K. & Nabel, G. J. Nature 333, 776-778 (1988). To analyze the κB-reporter activity in MEFs, cells were transfected with the reporter (2×kB-Luc) and PRL-TK vector (Promega) using FuGENE6 transfection reagent (Roche). Luciferase activity was analyzed by Dual-Luciferase Reporter Assay System (Promega).
To determine whether PRMT-1, 2 or 3 could affect NF-κB function, their potential to regulate effects on transcription of the human immunodeficiency virus type 1 (HIV-1) was examined. Transient co-transfections were performed using PRMT1, PRMT2 and PRMT3 expression plasmids with an HIV-1 reporter plasmid in the human renal epithelial cell line, 293T.
To determine its dependence on NF-κB, human immunodeficiency virus type 1 (HIV-1) reporter plasmids with wild-type (WT) or mutant (ΔκB) sites were co-transfected transiently with control or PRMT2 expression plasmids in the different cell lines. […] The KB effect was dose-dependent and was also observed with other inducers of NF-κB, including phorbol […] (PMA) (FIG. 2B, right panel).

B1: PRMT2: human PRMT-2 polypeptide, SEQ ID NO:2, expressed from pVR1012 vector with HA-tag (protein, listed as Homo sapiens)
chain: MATSGDCPRSESQGEEPAECSEAGLLQEGVQPEEFVAIADYAATDETQLSFLRGEKILILRQTTADWWWGERAGCCGYIPANHVGKHVDEYDPEDTWQDEEYFGSYGTLKLHLEMLADQPRTTKYHSVILQNKESLTDKVILDVGCGTGIISLFCAHYARPRAVYAVEASEMAQHTGQLVLQNGFADIITVYQQKVEDVVLPEKVDVLVSEWMGTCLLFEFMIESILYARDAWLKEDGVIWPTMAALHLVPCSADKDYRSKVLFWDNAYEFNLSALKSLAVKEFFSKPKYNHILKPEDCLSEPCTILQLDMRTVQISDLETLRGELRFDIRKAGTLHGFTAWFSVHFQSLQEGQPPQVLSTGPFHPTTHWKQTLFMMDDPVPVHTGDVVTGSVVLQRNPVWRRHMSVALSWAVTSRQDPTSQKVGEKVFPIWR
modifications: HA tag
293T cells, expression plasmid co-transfected with HIV-1 reporter plasmid
  inhibition of HIV-1 transcription: about 50 fold
293 cells, basal and TNF-α-dependent
  HIV-1 transcription from wild-type reporter: significantly inhibited both basal and TNF-α-dependent HIV-1 transcription

Reference: patent US20060239990A1, “Protein Arginine N-Methyltransferase 2 (PRMT-2)” (priority 2003, published 2006)
